The text below walks through data of publication PMC2731490 (Nature, 2009).

For assay [1], the target named is T1, pol V Mut (UmuD′2C–RecA), wild-type RecA (Escherichia coli, UniProt P0A7G6).
T1 sequence (P0A7G6 2-353): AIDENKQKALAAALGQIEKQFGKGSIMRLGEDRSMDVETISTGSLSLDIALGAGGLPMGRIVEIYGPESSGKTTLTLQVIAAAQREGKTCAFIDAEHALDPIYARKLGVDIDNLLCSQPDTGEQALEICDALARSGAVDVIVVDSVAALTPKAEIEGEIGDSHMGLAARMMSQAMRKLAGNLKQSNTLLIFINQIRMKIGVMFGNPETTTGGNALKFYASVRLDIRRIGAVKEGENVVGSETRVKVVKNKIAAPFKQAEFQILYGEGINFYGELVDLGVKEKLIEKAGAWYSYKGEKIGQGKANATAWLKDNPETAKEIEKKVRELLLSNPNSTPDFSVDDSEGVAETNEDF
T1 sequence (P04152 1-422 partner): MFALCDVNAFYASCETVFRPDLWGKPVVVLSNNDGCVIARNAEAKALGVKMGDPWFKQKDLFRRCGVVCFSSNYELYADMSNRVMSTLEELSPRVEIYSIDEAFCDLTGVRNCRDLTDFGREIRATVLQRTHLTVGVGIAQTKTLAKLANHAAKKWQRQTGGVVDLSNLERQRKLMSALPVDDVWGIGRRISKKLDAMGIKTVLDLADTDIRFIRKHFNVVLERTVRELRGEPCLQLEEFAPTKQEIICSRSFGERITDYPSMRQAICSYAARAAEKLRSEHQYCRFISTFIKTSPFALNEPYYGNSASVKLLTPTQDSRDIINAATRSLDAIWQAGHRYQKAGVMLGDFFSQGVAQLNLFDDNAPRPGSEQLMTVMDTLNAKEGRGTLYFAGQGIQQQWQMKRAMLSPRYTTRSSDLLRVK
T1 sequence (P0AG11 25-139 partner limits assumed): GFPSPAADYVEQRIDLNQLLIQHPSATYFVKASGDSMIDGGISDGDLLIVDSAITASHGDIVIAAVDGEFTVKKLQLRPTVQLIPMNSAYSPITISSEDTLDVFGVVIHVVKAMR
The assay is described as follows: hairpin primer/template extension, […]-labelled DNA. Type of assay: biochemical. The settings on record: nucleotide added after activation; RecA* absent; hydrolysis not needed.

The target of assay [2] is T2, UmuC (E. coli, UniProt P04152 1-422).
T2 sequence (looked up): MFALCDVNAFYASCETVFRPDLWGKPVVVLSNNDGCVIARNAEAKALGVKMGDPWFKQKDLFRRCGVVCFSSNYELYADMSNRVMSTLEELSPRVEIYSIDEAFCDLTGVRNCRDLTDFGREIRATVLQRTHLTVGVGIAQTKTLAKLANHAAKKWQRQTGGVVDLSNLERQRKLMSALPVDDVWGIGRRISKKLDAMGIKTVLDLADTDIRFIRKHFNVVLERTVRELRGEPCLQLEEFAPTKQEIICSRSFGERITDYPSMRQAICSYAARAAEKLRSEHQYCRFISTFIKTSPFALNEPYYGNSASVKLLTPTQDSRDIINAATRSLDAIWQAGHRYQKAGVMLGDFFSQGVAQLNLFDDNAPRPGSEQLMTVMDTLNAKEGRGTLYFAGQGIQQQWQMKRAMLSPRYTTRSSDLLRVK
The assay is described as follows: SEC-MALS. For orientation: In gel filtration, larger molecules generally elute earlier.

In assay [3] the target is T3, DNA polymerase V (UmuD′2C) (E. coli, UniProt P04152 1-422; P0AG11 25-139).
T3 sequence (looked up) 1: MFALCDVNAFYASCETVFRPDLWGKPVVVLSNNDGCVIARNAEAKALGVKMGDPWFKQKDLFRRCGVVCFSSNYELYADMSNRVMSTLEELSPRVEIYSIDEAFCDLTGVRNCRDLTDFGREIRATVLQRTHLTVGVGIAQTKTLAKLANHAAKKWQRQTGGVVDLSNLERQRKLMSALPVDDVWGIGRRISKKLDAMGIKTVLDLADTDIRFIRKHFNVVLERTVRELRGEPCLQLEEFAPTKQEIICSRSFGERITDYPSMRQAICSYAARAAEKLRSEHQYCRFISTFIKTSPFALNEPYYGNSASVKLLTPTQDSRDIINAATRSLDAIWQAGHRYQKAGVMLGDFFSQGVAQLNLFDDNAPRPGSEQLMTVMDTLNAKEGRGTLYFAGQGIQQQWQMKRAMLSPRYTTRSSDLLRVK
T3 sequence (looked up) 2: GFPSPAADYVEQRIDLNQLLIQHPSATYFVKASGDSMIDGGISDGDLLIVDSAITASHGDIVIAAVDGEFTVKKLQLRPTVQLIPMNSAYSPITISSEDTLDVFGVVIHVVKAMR

Regarding `Nc1ncnc2c1ncn2[C@@H]1O[C@H](COP(=O)(O)OP(=O)(O)OP(=O)(O)O)[C@@H](O)[C@H]1O` [ATP], in assay [1], the “hairpin primer/template extension, 32P-labelled DNA” value was “pol V Mut activated with wild-type RecA* is inactive in the absence of added ATP or ATPγS”.

B1: UmuD′ (natural protein, E. coli, UniProt P0AG11 25-139, looked up)
chain: GFPSPAADYVEQRIDLNQLLIQHPSATYFVKASGDSMIDGGISDGDLLIVDSAITASHGDIVIAAVDGEFTVKKLQLRPTVQLIPMNSAYSPITISSEDTLDVFGVVIHVVKAMR
Regarding B1, the binding result in assay [2] is “binds”.

B2: wild-type RecA (natural protein, E. coli, UniProt P0A7G6 1-353, looked up)
chain: MAIDENKQKALAAALGQIEKQFGKGSIMRLGEDRSMDVETISTGSLSLDIALGAGGLPMGRIVEIYGPESSGKTTLTLQVIAAAQREGKTCAFIDAEHALDPIYARKLGVDIDNLLCSQPDTGEQALEICDALARSGAVDVIVVDSVAALTPKAEIEGEIGDSHMGLAARMMSQAMRKLAGNLKQSNTLLIFINQIRMKIGVMFGNPETTTGGNALKFYASVRLDIRRIGAVKEGENVVGSETRVKVVKNKIAAPFKQAEFQILYGEGINFYGELVDLGVKEKLIEKAGAWYSYKGEKIGQGKANATAWLKDNPETAKEIEKKVRELLLSNPNSTPDFSVDDSEGVAETNEDF
As for B2, the “stoichiometry N” value in assay [3] was found to be 1 RecA per UmuC per UmuD′2.

As usually defined, the stoichiometry N is the number of molecules, sites or subunits per partner or assembly.
